Target: T1, human TMEM192 with a C-terminally fused HA epitope (human), Q8IY95
T1 chain: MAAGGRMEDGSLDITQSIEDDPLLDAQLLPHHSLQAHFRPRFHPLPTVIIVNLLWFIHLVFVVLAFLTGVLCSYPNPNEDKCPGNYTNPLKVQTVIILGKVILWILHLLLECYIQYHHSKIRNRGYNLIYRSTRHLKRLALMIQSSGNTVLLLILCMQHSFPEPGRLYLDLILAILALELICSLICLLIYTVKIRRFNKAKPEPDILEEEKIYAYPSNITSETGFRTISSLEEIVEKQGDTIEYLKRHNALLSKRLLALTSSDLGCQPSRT
Assay: non-reducing SDS-PAGE and Western blot; total lysates of transiently transfected HeLa cells denatured 5 min at 95°C in the absence of DTT; detection with anti-HA antibody 3F10; shows only disulphide-linked dimers
Settings: remark: other sources report otherwise

B1: human TMEM192 with a C-terminally fused HA epitope, Q8IY95 1-271 (natural protein)
chain: MAAGGRMEDGSLDITQSIEDDPLLDAQLLPHHSLQAHFRPRFHPLPTVIIVNLLWFIHLVFVVLAFLTGVLCSYPNPNEDKCPGNYTNPLKVQTVIILGKVILWILHLLLECYIQYHHSKIRNRGYNLIYRSTRHLKRLALMIQSSGNTVLLLILCMQHSFPEPGRLYLDLILAILALELICSLICLLIYTVKIRRFNKAKPEPDILEEEKIYAYPSNITSETGFRTISSLEEIVEKQGDTIEYLKRHNALLSKRLLALTSSDLGCQPSRT
- stoichiometry N: 2
